The text below walks through data of PMC9574934, “Targeting the Phosphatidylserine-Immune Checkpoint with a Small-Molecule Maytansinoid Conjugate” (Journal of Medicinal Chemistry, 2022).

A short description of data set [1]: Single intravenous dose pharmacokinetic study. As to conditions: for loss of AUC: intact conjugate AUC relative to 40a; for AUC(0-24 hr) Conjugate: intact conjugate; for AUC(0-24 hr) Conjugate / CL / Vss / AUC(0-24 hr) Drug: male ICR mice; for AUC(0-24 hr) Conjugate / CL / Vss: 5 mg/kg intravenous; for CL / Vss: n = 3; for AUC(0-24 hr) Drug: 5 mg/kg intravenous of conjugate. The protocol:
Six-week-old male ICR mice, from the Biolasco Taiwan, were divided into groups of three and dosed at 5 mg/kg intravenously. Blood samples were drawn from each animal at time points of 0.003, 0.083, 0.25, 0.5, 1, 2, 4, 6, 8, and 24 h and stored on ice (0–4 °C). With centrifugation (3000 rpm for 15 min at 4 °C in a Beckman Model Allegra 6R centrifuge), plasma was separated from the blood and stored in frozen conditions (−20 °C). […] The mice were sacrificed, and the blood samples of 0.5 mL each and tumor samples were collected at 0.5, 2, 6, 24, 72, and 168 h after administration. Each time point group included 4 mice. Mouse blood samples were collected in EDTA tubes and centrifuged at 13,000 rpm for 5 min at 4°C for plasma collection. Plasma and the harvested tumor samples were stored at −80°C until use. Fifty microliters of mouse plasma or the sample of tumor homogenated in ddH2O with dilution ratio of 1:3 (w/v) by MiniBeadbeater-16 (BioSpec Products Inc., OK, USA) was mixed with 100 μL of acetonitrile containing 250 ng/mL BPR0L187. The mixture was vortexed for 30 s and then centrifuged at 15000g for 20 min. The supernatant was transferred to a clean tube, and 15 μL of the supernatant was injected onto LC/MS/MS. Plasma samples were analyzed by liquid chromatography tandem mass spectrometry (LC/MS/MS). The chromatographic system Agilent 1200 series LC system and an Agilent ZORBAX Eclipse XDB-C8 column (5 μm, 3.0 × 150 mm) interfaced to an MDS Sciex API4000 tandem mass spectrometer equipped with an ESI in the positive scanning mode at 600 °C was used. Data acquisition was collected via multiple reactions monitoring (MRM). A gradient system was employed for the separation of analyte and IS. Mobile phase A was 10 mM ammonium acetate aqueous solution containing 0.1% formic acid. Mobile phase B was acetonitrile. The gradient profile was as follows: 0.0–1.1 min, 50% B; 1.2–3.7 min, 55%B–90%B; 3.8–5.0 min, 90%B–50%B. The flow rate was 1.5 mL/min. The autosampler was programmed to inject 15 μL of the sample every 5 min.

Data set [2] deals with MIA PaCa-2 human xenografts. As to the kind of experiment: MIA PaCa-2 xenograft antitumor efficacy. As for the experimental part:
Cancer cells, suspending in phenol red free medium/DPBS, were mixed with Matrigel (356237, BD Biosciences, San Jose CA, USA) in a 1:1 ratio. Human pancreatic cancer MIA PaCa-2 (1 × 10^6 cells) or triple-negative breast cancer HCC1806 (1 × 10^6cells) cells were subcutaneously inoculated to left flanks of male nude mice 6 weeks old (Biolasco, Taiwan) or female nude mice 6 weeks old by using a 1 mL syringe (needle 24G × 1 in., 0.55 × 25 mm; TERUMO). Tumor dimensions were measured twice a week with an electronic caliper (FOW54-200-777, PRO-MAX, Newton, Massachusetts, USA), and the volume of the subcutaneously growing tumor in mm^3 was calculated by the following formula: volume = (length × width[2])/2. Conjugates were formulated 10% DMA/20% Cremophor EL/70% injectable solution of 5% dextrose (D5W) for treating MIA PaCa-2 and HCC1806 xenograft tumors. […] Body weight of the mice and tumor volume were measured twice weekly.

Where [3] appears, read: MIA PaCa-2 xenograft, 2 mg/kg intravenous (Figure S4).
Setting [4] is: 1 mg/kg intravenously twice weekly for two weeks (Figure 4).

As for `CCCCCC(=O)Nc1cccc(CN(Cc2cc(CN(Cc3ccccn3)Cc3cccc(NC(=O)CCCCC)n3)cc(OCCCCN(Cc3ccc(-c4ccccc4)cc3)C(=O)COCCOCCOCC(=O)NCc3ccc(CNC(=O)CCC(C)(C)SSCCC(=O)N(C)[C@@H](C)C(=O)O[C@H]4CC(=O)N(C)c5cc(cc(OC)c5Cl)C/C(C)=C/C=C\[C@@H](OC)[C@@]5(O)C[C@H](OC(=O)N5)[C@@H](C)[C@@H]5O[C@@]45C)cc3)c2)Cc2ccccn2)n1.O=[N+]([O-])[O-].O=[N+]([O-])[O-].O=[N+]([O-])[O-].O=[N+]([O-])[O-].[Zn+2].[Zn+2]` [Compound 40b], in data set [1], the “loss of AUC” value is on record as approximately 20%, the “AUC(0-24 hr) Conjugate” value worked out at 88387 ng·h/mL, the CL worked out at 1.0 mL/min/kg and the Vss is reported as 0.2 L/kg. Also, in data set [1] (released payload 14), the “AUC(0-24 hr) Drug” value was determined as 91 ng·h/mL.

Take `CCCCCC(=O)Nc1cccc(CN(Cc2cc(CN(Cc3ccccn3)Cc3cccc(NC(=O)CCCCC)n3)cc(OCCCCN(Cc3ccc(C(=O)NCCOCCOCCNC(=O)CCSSC(C)(C)CCC(=O)N(C)C(C)C(=O)OC4CC(=O)N(C)c5cc(cc(OC)c5Cl)CC(C)=CC=CC(OC)C5(O)CC(OC(=O)N5)C(C)C5OC45C)cc3)C(=O)C3(c4ccc(Cl)cc4)CCCCC3)c2)Cc2ccccn2)n1.O=[N+]([O-])[O-].O=[N+]([O-])[O-].O=[N+]([O-])[O-].O=[N+]([O-])[O-].[Zn+2].[Zn+2]` (centres unmarked) [Compound 43]: in data set [1], the “loss of AUC” value is approximately 20%, the “AUC(0-24 hr) Conjugate” value stood at 84916 ng·h/mL, the CL is listed as 1.0 mL/min/kg and the Vss was found to be 0.2 L/kg. Also, the “AUC(0-24 hr) Drug” value in data set [1] (released payload 16) came to 48 ng·h/mL.

Regarding `COc1cc2cc(c1Cl)N(C)C(=O)C[C@H](OC(=O)[C@H](C)N(C)C(=O)CCSSc1ccc(C(=O)NCCCCOc3cc(CN(Cc4ccccn4)Cc4ccccn4)cc(CN(Cc4ccccn4)Cc4ccccn4)c3)cc1)[C@]1(C)O[C@H]1[C@H](C)[C@@H]1C[C@@](O)(NC(=O)O1)[C@H](OC)/C=C\C=C(/C)C2.O=[N+]([O-])[O-].O=[N+]([O-])[O-].O=[N+]([O-])[O-].O=[N+]([O-])[O-].[Zn+2].[Zn+2]` [Compound 27b, (1S,2R,3S,5S,6S,16E,18Z,20R,21S)-11-Chloro-21-hydroxy-12,20-dimethoxy-2,5,9,16-tetramethyl-8,23-dioxo-4,24-dioxa-9,22-diazatetracyclo[19.3.1.1.^10,140^3,5]hexacosa-10(26),11,13,16,18-pentaen-6-yl (2S)-2-[{3-[(4-{[4-(3,5-bis{[bis(Pyridin-2-ylmethyl)amino]methyl}phenoxy)butyl]carbamoyl}phenyl)disulfanyl]propanoyl}(methyl)amino]propanoate·2[Zn(NO3)2]], in data set [1], the “AUC(0-24 hr) Conjugate” value was determined as 318 ng·h/mL, the CL is given as 294 mL/min/kg and the Vss was 83 L/kg. Besides, the “AUC(0-24 hr) Drug” value in data set [1] (released payload 14) is 216 ng·h/mL. In addition, in data set [2] (setting [3]), the antitumor activity entry is “exhibited antitumor activities” and the “body weight change during treatment” value is “significant body weight loss”.

With `CCCCCC(=O)Nc1cccc(CN(Cc2cc(CN(Cc3ccccn3)Cc3cccc(NC(=O)CCCCC)n3)cc(OCCCCNC(=O)CCSSCCC(=O)N(C)[C@@H](C)C(=O)O[C@H]3CC(=O)N(C)c4cc(cc(OC)c4Cl)C/C(C)=C/C=C\[C@@H](OC)[C@@]4(O)C[C@H](OC(=O)N4)[C@@H](C)[C@@H]4O[C@@]34C)c2)Cc2ccccn2)n1.O=[N+]([O-])[O-].O=[N+]([O-])[O-].O=[N+]([O-])[O-].O=[N+]([O-])[O-].[Zn+2].[Zn+2]` [Compound 33, (1S,2R,3S,5S,6S,16E,18Z,20R,21S)-11-Chloro-21-hydroxy-12,20-dimethoxy-2,5,9,16-tetramethyl-8,23-dioxo-4,24-dioxa-9,22-diazatetracyclo[19.3.1.1.^10,140^3,5]hexacosa-10(26),11,13,16,18-pentaen-6-yl (2S)-2-[{3-[(3-{[4-(3,5-bis{[{[6-(Hexanoylamino)pyridin-2-yl]methyl}(pyridin-2-ylmethyl)amino]methyl}phenoxy)butyl]amino}-3-oxopropyl)disulfanyl]propanoyl}(methyl)amino]propanoate·2[Zn(NO3)2]], in data set [1], the “AUC(0-24 hr) Conjugate” value amounted to 14379 ng·h/mL, the CL turned out to be 6.8 mL/min/kg and the Vss was found to be 0.5 L/kg. The “AUC(0-24 hr) Drug” value in data set [1] (released payload 14) was determined as 270 ng·h/mL. Besides, in data set [2] (setting [3]), the antitumor activity entry is reported as “exhibited antitumor activities” and the “body weight change during treatment” value was “significant body weight loss”.

With `COc1cc2cc(c1Cl)N(C)C(=O)C[C@H](OC(=O)[C@H](C)N(C)C(=O)CCSSCCC(=O)NCc1ccc(CNC(=O)COCCOCCOCC(=O)N(CCCCOc3cc(CN(Cc4ccccn4)Cc4ccccn4)cc(CN(Cc4ccccn4)Cc4ccccn4)c3)Cc3ccc(-c4ccccc4)cc3)cc1)[C@]1(C)O[C@H]1[C@H](C)[C@@H]1C[C@@](O)(NC(=O)O1)[C@H](OC)/C=C\C=C(/C)C2.O=[N+]([O-])[O-].O=[N+]([O-])[O-].O=[N+]([O-])[O-].O=[N+]([O-])[O-].[Zn+2].[Zn+2]` [Compound 30], in data set [1], the “AUC(0-24 hr) Conjugate” value worked out at 39025 ng·h/mL, the CL is recorded as 2.5 mL/min/kg and the Vss is given as 0.5 L/kg. The “AUC(0-24 hr) Drug” value in data set [1] (released payload 14) came to 242 ng·h/mL.

Take `CCCCCC(=O)Nc1cccc(CN(Cc2cc(CN(Cc3ccccn3)Cc3cccc(NC(=O)CCCCC)n3)cc(OCCCCNC(=O)COCCOCCOCC(=O)NCc3ccc(CNC(=O)CCSSCCC(=O)N(C)[C@@H](C)C(=O)O[C@H]4CC(=O)N(C)c5cc(cc(OC)c5Cl)C/C(C)=C/C=C\[C@@H](OC)[C@@]5(O)C[C@H](OC(=O)N5)[C@@H](C)[C@@H]5O[C@@]45C)cc3)c2)Cc2ccccn2)n1.O=[N+]([O-])[O-].O=[N+]([O-])[O-].O=[N+]([O-])[O-].O=[N+]([O-])[O-].[Zn+2].[Zn+2]` [Compound 36]: in data set [1], the “AUC(0-24 hr) Conjugate” value worked out at 14244 ng·h/mL, the CL is recorded as 6.0 mL/min/kg and the Vss is 0.4 L/kg. The “AUC(0-24 hr) Drug” value in data set [1] (released payload 14) was determined as 640 ng·h/mL. Also, in data set [2] (setting [4]), the antitumor efficacy entry was “potent antitumor efficacies” and the “body weight change during treatment” value was “without apparent body weight loss”.

In the case of `COc1cc2cc(c1Cl)N(C)C(=O)CC(OC(=O)C(C)N(C)C(=O)CCSSCCC(=O)NCCCCOc1cc(CN(Cc3ccccn3)Cc3ccccn3)cc(CN(Cc3ccccn3)Cc3ccccn3)c1)C1(C)OC1C(C)C1CC(O)(NC(=O)O1)C(OC)C=CC=C(C)C2.O=[N+]([O-])[O-].O=[N+]([O-])[O-].O=[N+]([O-])[O-].O=[N+]([O-])[O-].[Zn+2].[Zn+2]` [Compound 27a, (1S,2R,3S,5S,6S,16E,18Z,20R,21S)-11-Chloro-21-hydroxy-12,20-dimethoxy-2,5,9,16-tetramethyl-8,23-dioxo-4,24-dioxa-9,22-diazatetracyclo[19.3.1.1.^10,140^3,5]hexacosa-10(26),11,13,16,18-pentaen-6-yl (2S)-2-[{3-[(3-{[4-(3,5-bis{[bis(Pyridin-2-ylmethyl)amino]methyl}phenoxy)butyl]amino}-3-oxopropyl)disulfanyl]propanoyl}(methyl)amino]propanoate·2[Zn(NO3)2]], in data set [1], the “AUC(0-24 hr) Conjugate” value came to 7051 ng·h/mL, the CL came out at 11.5 mL/min/kg and the Vss was 2.6 L/kg. Besides, in data set [1] (released payload 14), the “AUC(0-24 hr) Drug” value came to 462 ng·h/mL. Moreover, in data set [2] (setting [3]), the antitumor activity entry was “exhibited antitumor activities” and the “body weight change during treatment” value was “significant body weight loss”.

As usually defined, the Vss is a proportionality between amount in the body and measured concentration, not a real space. Higher therefore signals wide distribution into tissue.
